Data: publication PMC6393308
Where a chain is given by its changes, count along the chain named.

T1: HpSoj (Helicobacter pylori 26695, UniProt O25759 1-264)
T1 sequence: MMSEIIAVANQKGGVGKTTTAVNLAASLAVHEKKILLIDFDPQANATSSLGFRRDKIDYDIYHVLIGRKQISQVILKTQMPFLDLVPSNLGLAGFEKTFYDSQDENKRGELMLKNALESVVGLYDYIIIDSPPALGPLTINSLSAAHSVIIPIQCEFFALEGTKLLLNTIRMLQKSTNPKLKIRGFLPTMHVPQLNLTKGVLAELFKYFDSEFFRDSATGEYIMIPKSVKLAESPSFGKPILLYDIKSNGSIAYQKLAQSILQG

T2: HpSoj K199/230E (Helicobacter pylori 26695, UniProt O25759 1-264, K199E;K230E)
T2 sequence: T1 sequence with K199E, K230E

T3: HpSoj K199E (Helicobacter pylori 26695, UniProt O25759 1-264, K199E)
T3 sequence: T1 sequence with K199E

T4: HpSoj K230E (Helicobacter pylori 26695, UniProt O25759 1-264, K230E)
T4 sequence: T1 sequence with K230E

T5: HpSoj K199/227/230/247E (Helicobacter pylori 26695, UniProt O25759 1-264, K199E;K227E;K230E;K247E)
T5 sequence: T1 sequence with K199E, K227E, K230E, K247E

B1: parS55 (dsDNA)
DNA 1: CTGAATCAGCAGTTGAATCAGAATGTTCCACGTGAAACAAAGAAAAAAGAACCTG
DNA 2: CAGGTTCTTTTTTCTTTGTTTCACGTGGAACATTCTGATTCAACTGCTGATTCAG
B2: parS24 Cy3 (dsDNA)
DNA 1: AGGGTGTTCCACGTGAAACAGGGA
DNA 2: TCCCTGTTTCACGTGGAACACCCT

Tests used:
HpSoj [1] = target: T1, HpSoj; experiment: EMSA
HpSoj K199/230E = target: T2, HpSoj K199/230E; experiment: fluorescence polarization
HpSoj [2] = target: T1, HpSoj; experiment: fluorescence polarization
HpSoj K199E = target: T3, HpSoj K199E; experiment: fluorescence polarization
HpSoj K230E = target: T4, HpSoj K230E; experiment: fluorescence polarization
HpSoj K199/227/230/247E = target: T5, HpSoj K199/227/230/247E; experiment: fluorescence polarization

Row | Binder | binding result (HpSoj [1]) | Kd (HpSoj K199/230E) [nM] | Kd (HpSoj [2]) [nM] | Kd (HpSoj K199E) [nM] | Kd (HpSoj K230E) [nM] | binding result (HpSoj K199/227/230/247E)
1 | B1 | binds | – | – | – | – | –
2 | B2 | – | 308 ± 40 | 122 ± 14 | 215 ± 24 | 187 ± 36 | no binding
